Binding affinity (RU) data for 71 molecules are collected here from US20250011363A1, “OPTIMIZED SHORTENED PEPTIDE THAT BINDS TO ACETYLCHOLINE RECEPTOR, AND USE THEREOF” (SKINMED CO., LTD., priority 2021, published 2025).

This assay concerns the target acetylcholine receptor. The experiment in a line: SPR, receptor immobilised on chip, peptide at 10 uM. (In general: In SPR one partner is held on a chip, and binding of the other changes the refractive index at the surface.)

In turn, RPKAKK [6mer-2-921] had a Binding affinity (RU) of 22 RU.
Consider KNTKKR [6mer-2-961], for which the Binding affinity (RU) was 21 RU.
Then KTDKRK [6mer-2-942], with 22 RU; and KDNVRR [6mer-2-922], with 41 RU.
As for RPTVKR [6mer-2-926], the figure is 31 RU.
As for KFCIRR [6mer-2-928], the figure is 28 RU.
Regarding KEMFRK [6mer-2-971], the Binding affinity (RU) turned out to be 29 RU.
As for RYCFKR [6mer-2-931], the figure is 29 RU; as for RMPERR [6mer-2-955], 29 RU.
As for KEPHRR [6mer-2-978], the figure is 28 RU.
As for KDDVRR [6mer-2-970], the figure is 27 RU; as for RIEHKR [6mer-2-938], 40 RU.
Molecule KYWGRR [6mer-2-952] had a Binding affinity (RU) of 24 RU.
KTNWRK [6mer-2-947] had a Binding affinity (RU) of 41 RU.
For the molecule KPWFKR [6mer-2-965], the Binding affinity (RU) is 36 RU.
In turn, RTNARK [6mer-2-959] registered a Binding affinity (RU) of 35 RU.
KFKARK [6mer-2-958] yielded a Binding affinity (RU) of 28 RU.
As for RCCAKK [6mer-2-923], the figure is 33 RU; as for RDCVKR [6mer-2-960], 29 RU; as for RYSMKR [6mer-2-933], 34 RU.
Then RTSNKK [6mer-2-967], with 35 RU; and KESGKR [6mer-2-980], with 34 RU; and RAPIRR [6mer-2-912], with 27 RU.
Then KIDHRR [6mer-2-943], with 41 RU; and KKCERK [6mer-2-945], with 42 RU.
RDTHRR [6mer-2-957] showed a Binding affinity (RU) of 40 RU.
As for KPCEKK [6mer-2-946], the figure is 21 RU; as for RPNARR [6mer-2-949], 39 RU; as for RADEKK [6mer-2-951], 42 RU.
The molecule RHWEKK [6mer-2-968] registered a Binding affinity (RU) of 39 RU.
Molecule KYNKRR [6mer-2-950] registered a Binding affinity (RU) of 26 RU.
RTTGKK [6mer-2-976] displayed a Binding affinity (RU) of 26 RU.
KKCNKK [6mer-2-935] showed a Binding affinity (RU) of 22 RU.
The molecule RIPWRR [6mer-2-932] displayed a Binding affinity (RU) of 35 RU.
As for RFDDRR [6mer-2-974], the figure is 38 RU; as for RFCWRK [6mer-2-917], 23 RU.
KMSGKR [6mer-2-911] registered a Binding affinity (RU) of 21 RU.
Then KKSNRK [6mer-2-962], with 30 RU; and KFKNRR [6mer-2-913], with 25 RU; and KPPAKK [6mer-2-936], with 21 RU.
Then RTWIKR [6mer-2-930], with 37 RU; and KKCARR [6mer-2-939], with 22 RU; and REMKRK [6mer-2-977], with 30 RU.
On to RPPFRR [6mer-2-948], for which the Binding affinity (RU) is 28 RU.
As for RDEDKR [6mer-2-941], the figure is 33 RU; as for KEDAKR [6mer-2-966], 41 RU.
On to RASVKR [6mer-2-925], for which the Binding affinity (RU) came to 23 RU.
As to KCTIRK [6mer-2-954], the Binding affinity (RU) turned out to be 32 RU.
Molecule KKTMKK [6mer-2-975] had a Binding affinity (RU) of 38 RU.
Then KNHMRK [6mer-2-929], with 26 RU.
The molecule RFDHKK [6mer-2-924] yielded a Binding affinity (RU) of 28 RU.
Regarding RASHRR [6mer-2-937], the Binding affinity (RU) turned out to be 35 RU.
Then KFCWRR [6mer-2-956], with 28 RU; and KCEDRK [6mer-2-964], with 41 RU; and KDDIKK [6mer-2-914], with 25 RU.
As for KAMFRR [6mer-2-972], the figure is 38 RU; as for RMTIKK [6mer-2-920], 26 RU.
The molecule RNENKK [6mer-2-940] yielded a Binding affinity (RU) of 41 RU.
Then KAKHRR [6mer-2-963], with 37 RU; and RCEIRK [6mer-2-981], with 32 RU.
Consider KNWMRK [6mer-2-918], for which the Binding affinity (RU) was determined as 35 RU.
As for KATHKR [6mer-2-969], the figure is 33 RU.
Consider KPEDKK [6mer-2-944], for which the Binding affinity (RU) was found to be 35 RU.
In turn, KYKDRR [6mer-2-934] had a Binding affinity (RU) of 26 RU.
As for RFNPRK [6mer-2-927], the figure is 39 RU.
As for KTTEKR [6mer-2-916], the figure is 22 RU; as for KESVKK [6mer-2-953], 25 RU; as for KNCWKR [6mer-2-915], 29 RU.
On to KKAFKK [6mer-2-979], for which the Binding affinity (RU) was determined as 22 RU.
As for KCPIKK [6mer-2-973], the figure is 41 RU; as for KAKHKR [6mer-2-919], 27 RU.
